Data as given in doi:10.1101/2021.11.23.469700, “Zika virus-specific IgM elicited during pregnancy exhibits ultrapotent neutralization” (bioRxiv, 2021).

B1: DH1017.IgM (antibody, V domains shown)
VH: QVQLQESGPGLVKPSQTLSLTCAVSGGSISSGDSYWSWIRQHPGKGLEWIGSIYYSGSTYYNPSLKSRVTIPIDTSKNQFSLKLSSVTAADTAVYYCARHVGDLRVNDAFDIWGQGTMVTVSS
VL: QSVLTQPPSVSAAPGQKVTISCSGSSSNIGNNFVSWYQRLPGTPPKLLIYDSDKRPSGIPDRFSGSKSGTSATLGITGLQTGDEGDYYCGTWDRSLSVVVFGGGTKLTVL
notes: also called mAb DH1017.IgM; copies: 10 + 10
B2: DH1017.IgG (antibody, V domains shown)
VH: QVQLQESGPGLVKPSQTLSLTCAVSGGSISSGDSYWSWIRQHPGKGLEWIGSIYYSGSTYYNPSLKSRVTIPIDTSKNQFSLKLSSVTAADTAVYYCARHVGDLRVNDAFDIWGQGTMVTVSS
VL: QSVLTQPPSVSAAPGQKVTISCSGSSSNIGNNFVSWYQRLPGTPPKLLIYDSDKRPSGIPDRFSGSKSGTSATLGITGLQTGDEGDYYCGTWDRSLSVVVFGGGTKLTVL
notes: IgG1; also called recombinant DH1017.IgG; IgG1 isoform of DH1017; source: Expi 293i cells, co-transfected heavy and light chain plasmids, purified (Protein A resin)
B3: DH1017.Fab (Fab, V domains shown)
VH: QVQLQESGPGLVKPSQTLSLTCAVSGGSISSGDSYWSWIRQHPGKGLEWIGSIYYSGSTYYNPSLKSRVTIPIDTSKNQFSLKLSSVTAADTAVYYCARHVGDLRVNDAFDIWGQGTMVTVSS
VL: QSVLTQPPSVSAAPGQKVTISCSGSSSNIGNNFVSWYQRLPGTPPKLLIYDSDKRPSGIPDRFSGSKSGTSATLGITGLQTGDEGDYYCGTWDRSLSVVVFGGGTKLTVL
notes: also called DH1017 Fab fragment; Fab DH1017; source: Expi 293i cells, co-transfected heavy and light chain plasmids, purified (LambdaFabSelect agarose beads)

Experiments:
[1] = target: T1, ZIKV H/PF/2013 envelope (E) protein monomer (Zika virus H/PF/2013, UniProt A0A024B7W1, strain); test: ELISA; recombinant E protein ELISA: DH1017 mAbs immobilised at 0.5 ug/mL in TBS; his-tagged recombinant E protein in 2-fold dilutions from 20 ug/mL, 1 hour at 37°C; anti-his HRP; OD450; conditions: both partners purified
T1 construct: also called ZIKV E monomer

[2] = target: T2, ZIKV H/PF/2013 envelope (E) protein dimer (Zika virus H/PF/2013, UniProt A0A024B7W1, strain); test: as above; conditions: both partners purified
T2 construct: also called ZIKV E dimer; his-tagged recombinant E protein dimer; source: recombinant

[3] = target: T2, ZIKV H/PF/2013 envelope (E) protein …; test: BLI; Octet Red96, 25°C, PBS pH 7.4; mAb captured on anti-human Ig AR2G tips; ZIKV E protein dimer 50-0.78 ug/mL; fast kinetic components of the heterogeneous ligand model fit; single measurement; conditions: both partners purified
Scl-70 = target: T3, Scl-70 (Bos taurus (assumed), UniProt A0AAA9TV68); test: ELISA; autoantigen ELISA: purified antigens coated in 0.1M sodium bicarbonate; mAbs in 3-fold serial dilutions from 10 ug/ml, 1 hour at room temperature; HRP anti-human IgG, IgM and H+L; conditions: both partners purified
T3 construct: source: bought: Immunovision, SCL-3000
T3 sequence (P11387 whole entry): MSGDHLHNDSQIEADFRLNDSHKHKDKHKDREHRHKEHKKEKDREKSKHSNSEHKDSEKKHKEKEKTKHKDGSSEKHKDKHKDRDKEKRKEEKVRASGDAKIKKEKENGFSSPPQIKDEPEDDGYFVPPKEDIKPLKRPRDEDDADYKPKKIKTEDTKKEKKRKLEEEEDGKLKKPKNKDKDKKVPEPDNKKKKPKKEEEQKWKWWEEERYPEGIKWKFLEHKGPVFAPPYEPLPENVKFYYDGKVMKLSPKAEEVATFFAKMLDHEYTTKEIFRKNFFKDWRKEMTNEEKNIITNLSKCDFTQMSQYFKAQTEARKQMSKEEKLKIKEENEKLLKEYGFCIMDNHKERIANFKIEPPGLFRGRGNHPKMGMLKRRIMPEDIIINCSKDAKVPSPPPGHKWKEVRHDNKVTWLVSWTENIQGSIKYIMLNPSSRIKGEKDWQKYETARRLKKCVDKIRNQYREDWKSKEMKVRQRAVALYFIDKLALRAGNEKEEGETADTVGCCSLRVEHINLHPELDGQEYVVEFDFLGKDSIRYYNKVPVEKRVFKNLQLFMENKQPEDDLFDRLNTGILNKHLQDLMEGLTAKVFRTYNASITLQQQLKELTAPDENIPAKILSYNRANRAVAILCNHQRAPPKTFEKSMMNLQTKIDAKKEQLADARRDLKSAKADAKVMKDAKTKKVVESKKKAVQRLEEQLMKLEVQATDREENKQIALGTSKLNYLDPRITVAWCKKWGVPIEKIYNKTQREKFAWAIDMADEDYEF

SSB = target: T4, SSB (Bos taurus (assumed), UniProt P10881); test: as above; conditions: both partners purified
T4 construct: source: bought: Immunovision, SSB-3000
T4 sequence (P05455 whole entry): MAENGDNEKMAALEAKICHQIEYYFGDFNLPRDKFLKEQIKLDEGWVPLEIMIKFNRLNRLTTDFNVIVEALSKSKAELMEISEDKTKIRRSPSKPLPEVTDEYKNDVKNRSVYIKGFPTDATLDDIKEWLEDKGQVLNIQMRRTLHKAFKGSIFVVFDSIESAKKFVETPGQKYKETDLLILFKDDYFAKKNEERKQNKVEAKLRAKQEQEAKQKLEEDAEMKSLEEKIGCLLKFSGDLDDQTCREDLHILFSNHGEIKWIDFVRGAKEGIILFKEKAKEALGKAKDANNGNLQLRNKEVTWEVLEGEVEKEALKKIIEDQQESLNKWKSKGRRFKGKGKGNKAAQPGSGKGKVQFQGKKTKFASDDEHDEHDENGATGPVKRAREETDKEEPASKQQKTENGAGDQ

Centromere B = target: T5, Centromere B (Homo sapiens, UniProt P07199); test: as above; conditions: both partners purified
T5 construct: source: bought: Prospec, PRO-390
T5 sequence (P07199 whole entry): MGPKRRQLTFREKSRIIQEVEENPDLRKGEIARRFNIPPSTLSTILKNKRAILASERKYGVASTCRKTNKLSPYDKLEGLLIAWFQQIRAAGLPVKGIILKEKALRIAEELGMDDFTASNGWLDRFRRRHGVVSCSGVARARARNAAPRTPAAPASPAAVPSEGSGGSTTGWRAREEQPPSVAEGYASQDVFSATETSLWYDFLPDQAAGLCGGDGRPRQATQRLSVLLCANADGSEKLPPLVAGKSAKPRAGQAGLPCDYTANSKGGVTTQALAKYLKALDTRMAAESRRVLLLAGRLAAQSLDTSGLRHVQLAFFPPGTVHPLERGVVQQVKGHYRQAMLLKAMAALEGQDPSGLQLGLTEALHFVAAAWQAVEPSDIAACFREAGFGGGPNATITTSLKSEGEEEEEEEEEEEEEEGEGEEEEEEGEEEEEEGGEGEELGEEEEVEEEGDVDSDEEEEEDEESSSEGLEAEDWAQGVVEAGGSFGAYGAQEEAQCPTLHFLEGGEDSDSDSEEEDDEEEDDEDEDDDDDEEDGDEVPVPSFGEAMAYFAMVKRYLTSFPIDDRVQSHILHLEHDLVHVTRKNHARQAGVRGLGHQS

Jo-1 = Jo-1 (Bos taurus (assumed), UniProt Q2KI84); test: as above; conditions: both partners purified
Jo-1, sequence (P12081 whole entry): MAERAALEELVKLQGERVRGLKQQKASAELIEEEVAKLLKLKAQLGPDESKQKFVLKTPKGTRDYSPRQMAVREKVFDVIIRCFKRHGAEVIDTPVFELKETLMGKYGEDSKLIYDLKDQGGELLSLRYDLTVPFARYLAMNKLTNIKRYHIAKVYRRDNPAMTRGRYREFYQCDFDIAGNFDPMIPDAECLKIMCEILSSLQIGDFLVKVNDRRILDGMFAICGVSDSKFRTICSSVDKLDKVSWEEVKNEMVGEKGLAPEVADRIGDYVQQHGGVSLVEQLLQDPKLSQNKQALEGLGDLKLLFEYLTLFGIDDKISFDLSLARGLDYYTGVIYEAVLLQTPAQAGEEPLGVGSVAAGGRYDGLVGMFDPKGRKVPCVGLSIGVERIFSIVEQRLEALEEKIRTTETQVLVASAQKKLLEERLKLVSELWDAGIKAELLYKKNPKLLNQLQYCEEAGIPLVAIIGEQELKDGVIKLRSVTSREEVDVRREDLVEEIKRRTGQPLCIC

[4] = target: DENV2 (New Guinea C) virion (Dengue virus 2 New Guinea C, UniProt P14340, strain); test: ELISA; virion capture ELISA: virions captured on plates coated with 4G2 antibody; purified mAbs in 5-fold serial dilutions from 100 ug/mL, 1 hour at 37°C; HRP anti-human Ig; OD450; conditions: one partner purified
DENV1 (Hawaii) virion = target: T6, DENV1 (Hawaii) virion (Dengue virus 1 Hawaii (BEI NR-82), UniProt B5AGU1, strain); test: as above; conditions: one partner purified
T6 construct: also called DENV1 (Hawaii NR-82)

DENV4 (H241) virion = DENV4 (H241) virion (Dengue virus 4 H241, UniProt Q58HT7, strain); test: as above; conditions: one partner purified
[5] = target: DENV3 (Philippines) virion (Dengue virus 3 Philippines (H87/1956 …, UniProt P27915)); test: as above; conditions: one partner purified
[6] = target: T7, whole Zika PRVABC59 virion (Zika virus PRVABC59, UniProt A0A0X1LH65, strain); test: as above; conditions: one partner purified
T7 construct: also called ZIKV PRVABC59; whole ZIKV virion; source: ZIKV PRVABC59 from BEI, grown in Vero-81 cells, filtered cell supernatant

ZIKV H/PF/2013 virion = target: T8, ZIKV H/PF/2013 virion (Zika virus H/PF/2013, strain); test: cryo-EM structure; purified virus and DH1017.Fab incubated on ice for 2 hours; single particle reconstruction with icosahedral symmetry, 4104 particles, 5.3 Å; conditions: both partners purified
T8 construct: also called ZIKV H/PF/2013 particles; Zika virion; copies: 180 +

Binder	EC50 [1] [pM]	EC50 [2] [pM]	Kd [3] [pM]	koff [3] [s⁻¹]	binding result (Scl-70)	binding result (SSB)	binding result (Centromere B)	binding result (Jo-1)	binding result [4]	binding result (DENV1 (Hawaii) virion)	binding result (DENV4 (H241) virion)	binding result [5]	EC50 [6] [pM]	stoichiometry N (ZIKV H/PF/2013 virion) [Fab per asymmetric unit]
B1	202	91	106000	0.0103	no binding (tested: 10 ug/ml (start of the dilution series))	no binding (tested: 10 ug/ml (start of the dilution series))	no binding (tested: 10 ug/ml (start of the dilution series))	no binding (tested: 10 ug/ml (start of the dilution series))	no binding (tested: 100 ug/mL (start of the dilution series))	no binding (tested: 100 ug/mL (start of the dilution series))	no binding (tested: 100 ug/mL (start of the dilution series))	no binding (tested: 100 ug/mL (start of the dilution series))	22	–
B2	463	929	123000	0.0091	no binding (tested: 10 ug/ml (start of the dilution series))	no binding (tested: 10 ug/ml (start of the dilution series))	no binding (tested: 10 ug/ml (start of the dilution series))	no binding (tested: 10 ug/ml (start of the dilution series))	–	–	–	–	112	–
B3	1240	25100	–	–	no binding (tested: 10 ug/ml (start of the dilution series))	no binding (tested: 10 ug/ml (start of the dilution series))	no binding (tested: 10 ug/ml (start of the dilution series))	no binding (tested: 10 ug/ml (start of the dilution series))	–	–	–	–	–	1.5
